Test results published in the RNAGym collection of RNA variant scans (doi:10.1073/pnas.2313332121).
Variants at the floor of the assay were thinned out.

B1: TPR 5TU (parent)
chain: GGAUCUUCUCGAUCUAACAAAAAAGACAAAUCUGCCACAAAGCUUGAGAGCAUCUUCGGAUGCAGAGGCGGCAGCCUUCGGUGGCGCGAUAGCGCCAACGUUCUCAACUAUGACACGCAAAACGCGUGCUCCGUUGAAUGGAGUUUAUCAUG

Variants of: B1
Experiment: polymerase ribozyme fitness, log enrichment relative to wild type (log ratio); higher = more active; in vitro selection for triplet polymerase activity
How it was run: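 Fitness is a logarithmic measure of how a genotype enriched relative to the wild type, with replicate averages weighted by inverse variance. The logarithm uses base 2, and enrichment came from Illumina sequencing of input and output libraries. Those libraries were PCR-built, transcribed mutants of each subunit of a heterodimeric triplet polymerase ribozyme, passed through one triplicate in vitro selection round that included frozen incubation at −7 °C, gel excision of extended constructs and streptavidin-bead capture. Genotypes were kept only if they had ≥10 input reads and ≥1 read per output.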

Point of comparison: GGAUCUUCUCGAUCUGACAAAAAAGACAAAUCUGCCACAAAGCUUGAGAGCAUCUUCGGAUGCAGAGGCGGCAGCCUUCGGUGGGGCGAUAGCGCCAACGUUCUCAACUAUGACACGCAAAACGCGUGCUCCGUUGAAUGGAGUUUAUCAUG, “polymerase ribozyme fitness (log ratio)” value -2.6. Against it:
- GGAUCUUCUCGAUCUGACAAAAAAGACAAAUCUGCCAAAAAGCUUGAGAGCAUCUUCGGAUGCAGAGGCGGCAGCCUUCGGUGGCGCGAUAGCGCCAACGUUCUCAACUAUGACACGCAAAACGCGUGCUCCGUUGAAUGGAGUUUCUCAUG — lower, -2.97
- GGAUCUUCUCGAUCUGACAAAAAAGAGAAUUCUGCCACAAAGCUUGAGAGCAUCUUCGGAAGCAGAGGCGGCAGCCUUCGGUGGCGCGAUAGCGCCUACGUUCUCAACUAUGACACGCAAAACGCGUUCUCCGUUGAAUGGAGUUUAUCAUG — lower, ≤ -4.2
- GGAUCUUCUCGAUCUGACAAAAAAGACAAAUCUGCCACAAAGCUUGAGAGCAUCUUCGGAUGCAGAGGCGGCAGCCUUCGGUGGCGCGAUAGCGCAAACGUUCUCAACUAUGACACGCAAAACGCGUGCUCCGUUGAAUGGAGUUUAUCAUG — higher, -0.881
- GGAUCUUCUCGAUCUGACAAAAAAGACAAAUCUGCCACAAAGCUUGAGAGCAUCUUCGGAUGCAGAGGCGGCAGCCUUCGGUGGCGCGAUAGCGCCAACGUUCUCAACUAUGACACGCAAAACGCGUGCUCCGUUGAAUGGAGUUUAUCAUG — higher, -0.642
- GGAUCUUCUCGAUCUGACAAAAAAGACAAAUCUGCCACAAAGCUUGAGAGCAUCUUCGGAUGCAGAGGCGGCAGCCUUCGGUGGGUCGCUAGCGCCAACGUUCUCAGCUAUGACACGCAAAACGCGUGCUCCGUUGAAUGGAGUUUAUCAUG — lower, ≤ -4.2
- GGAUCUUCUCGAUCUGACAAUAAAGACAAAUCUGCCACAAAGCUUGAGAGCAUCUUCGGAUGCAGAGGCGGCAGCCUUCGGUGGCGCGAUAGCGCCGACGUUCUCAACUAUGACACGCAAAACGCGUGCUCCGUUGAAUGGAGUUUAUCAUG — higher, -1.74
- GGAUCUUCUCGAUCUGACAAAAAUGACAAAUCUGCCACAAAGCUUGAGAGCAUCUUCGGAUGCAGAGGCGGCUGCCUUCGGUGGCGCGAUAGCGCCAACGUUCUCAACUAUGACACGCAAAACGCGUGCUCCGUUGAAUGGAGUUUAUCAUG — higher, -2.25
- GGAUCUUCUCGAUCUCACAAAAAAGACAAAUCUGCCACAAAGCUUGAGAGCAUCUUCGGAUGCAGAGGCGGCAGCCUUCGGUGGCGCGAUAGCGCCAACGUUCUCAACUAUGACACGCAAAACGCGUGCUCCGUAGAAUGGAGUUUAUCAUG — higher, -2.12
- GGAUCUUCUCGAUCUGACAAAAAAGACAAAUCUGCCAAAAAGCUUGAGAGCAUCUUCGGAUGCAGAGGCGGCAGCAUUCGGUGGUGCGAUAGCGCCAACGUUCUCAACUAUGACACGCAAAACGCGUGCUCCGAUGAAUGGAGUUUAUCAUG — lower, -4
- GGAUCUUCUCGAUCUGACAAAAAAGACAAAUCUGCCACAAAGCUUGAGAGCAUCUUCGGAUGCAGAGGCGGCAGCCUUCGGUGGCGCGAUGGCGCCAACGUUCUCAACUAUGACACGUAAAACGCGUGCUCCGUUGAAUGGAGUUUAUCUUG — lower, -3.08
- GGAUCUUCUCGAUCUGACAAAAAAGACAAAUCUGCCCCAAAGCUUGAGAGCAUCGACGAAUGCAGAGGCGGCAGCCUUCGGUAGCGUGAUAGCGCCAACGUUCUCAACUAUGACACGCAAAACGCGUGCUCCGUUGAAUGGAGUUUAUCAUG — lower, -3.9
- GGAUCUUCUCGAUCUGACAAAAAAGACAAAUCUGCCACAAAGCUUGAGAGCAUCUUAGGAUGCAGAGGCGGCAGCCUUCGGUGGGGCGAUAGCGCCAACGUUCUCAACUAUGACACGCAAUACGCGUGCUCCGUUGAAUGGAGUUUAUCAUG — within 0.2 log units, -2.53
- GGAUCUUCUCGAUCUGACAAAAAAGACAAAUCUGCCACAAAGCUUGAGAGCAUCUUCGGAUGCAGAGGCGGCAGCCUUCGGUGGUGCGAUAGCGCCAACGUUCUCAACUAUGACACGCAAAACGCGUGCUCCGUUGAAUGGAGUUUAUCAUG — higher, -0.908
- GGAUCUUCUCGAUCUGACAAAAAAGACAAAUCUGCCACAAAGCUUGAGAGCAUCUUCGGAUGCAGAGGCGGCAGCCUUCGGUGGCGCGAUAGCGUAAACUAUCUCAAAUAUGACACGCAAAACGCGUGCUCCGUUGAACGGAGAUUAUCAUG — lower, ≤ -4.2
- GGAUCUUCUCGAUCUGACAAAAAAGUCAAAUCUGCCACAAAGCUUGAGAGUCUCUUCGGAUGCAGAGGCGGCAGCCUUCGGUGGCGUGAUAGCGCCAACGUUCUCAACUAUGACACGCAAAACGCGUGCUCCGUUGAAUGGAGUUUAUCAUG — lower, ≤ -4.2
- GGAUCUUCUCGAUCUGACAAAAAAGACAAAUCUGACACAAAGCUUGAGAGCAUCUUCGGAUGCAGAGGCGGCAGCCUUCGGUGGCGGGAUAGCGCCAACGUUCUCAACCAUGACACGCAAAACGCCUGCUCCGUUGAAUGGAGUUUAUGAUG — lower, ≤ -4.2
- GGAUCUUCUCGAUCUGACAAAAAAGACAAAUCUGCCACAAAGCUUGAGAGCAUCUUCGGAUGCAGAGGCGGCAGCCUUCGGUGGCGCGAUAGAGCCAACGUUCUCAACUAUGACACGCAAAACGCGUGCUCCGUUGAAUGGAGUUUAUCAUG — higher, -2.12
- GGAUCUUCUCGAUCUGACAAAAAAGUCAAAUCUGCCACAAAGCUUGAGAGCAUCUUCGGAUGCAUAGGCGGCAGCCUUCGGUGGCGCGAUAGCGCCAACGUUGUCAGCUAUGAGACGCAAAACGCGUGCUCCGUUGAAUGGAGUUUAUCAUG — lower, ≤ -4.2
